Measured values taken from patent US20060246071A1 (AstraZeneca / MedImmune, published 2006).

Key:
[1] = molecular target: T1, recombinant human Angiopoietin-2 (human, UniProt O15123 19-496); experiment: competition ELISA, Ang-2 on coated Tie2/Fc
T1 construct: also called Ang-2; rhAng-2
T1 sequence: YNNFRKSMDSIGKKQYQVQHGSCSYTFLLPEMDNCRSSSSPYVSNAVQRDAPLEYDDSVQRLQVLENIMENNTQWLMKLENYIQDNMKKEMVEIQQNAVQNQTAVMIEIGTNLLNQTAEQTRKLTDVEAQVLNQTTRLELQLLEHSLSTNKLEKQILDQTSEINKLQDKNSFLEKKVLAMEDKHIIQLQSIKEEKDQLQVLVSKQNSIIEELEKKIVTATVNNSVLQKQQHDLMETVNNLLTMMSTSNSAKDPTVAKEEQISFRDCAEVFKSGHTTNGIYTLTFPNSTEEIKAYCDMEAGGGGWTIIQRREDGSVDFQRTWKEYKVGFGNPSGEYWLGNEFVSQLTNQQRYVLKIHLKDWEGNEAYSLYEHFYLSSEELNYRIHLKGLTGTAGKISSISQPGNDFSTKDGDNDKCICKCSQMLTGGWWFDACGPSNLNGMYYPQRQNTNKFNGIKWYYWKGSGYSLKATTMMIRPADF
Protocol: 96-well Nunc Immplates™ were coated with 100 μl of recombinant human Tie2/Fc fusion protein (R&D Systems, Inc., Cat. No. 313-TI-100) at 4 μg/ml by incubating overnight at 4° C. The plates were washed four times using Phosphate Buffer Saline (PBS) with a Skan™ Washer 300 station (SKATRON). The wells were blocked by 100 μl of ABX-blocking buffer (0.5% BSA, 0.1% Tween, 0.01% Thimerosal in PBS) for 1 hour.
The plates were incubated at room temperature for two hours before the unbound molecules were washed off. […] After washing twice, the bound Streptavidin was detected by HRP substrate (R&D Systems, Cat. No. DY998). The plates were incubated for 30 minutes before 450 stop solution (100 μl/well, BioFX, Cat #BSTP-0100-01) was added to terminate the reaction. The light absorbance at 450 nm was determined by a Spectramax Plus reader.
Each concentration of the mAb was tested in duplicate. The concentration-response relationship was found by curve fitting using Graphpad Prism™ graphic software (non-linear, Sigmnoid curve). The maximal inhibition (efficacy) and IC₅₀ (potency) were calculated by the software.

[2] = molecular target: T2, mouse Angiopoietin-2 (mouse, UniProt O35608 19-496); experiment: competition ELISA: mAb titrated with mouse Ang-2 supernatant on plates coated with human Tie2/Fc; blocked partner: human Tie2/Fc
T2 construct: Secreted into the supernatant of HEK293F/293T cells transfected with the full-length open reading frame of 496 amino acids (GenBank BC027216); also called mAng-2; mouse Ang-2
T2 sequence: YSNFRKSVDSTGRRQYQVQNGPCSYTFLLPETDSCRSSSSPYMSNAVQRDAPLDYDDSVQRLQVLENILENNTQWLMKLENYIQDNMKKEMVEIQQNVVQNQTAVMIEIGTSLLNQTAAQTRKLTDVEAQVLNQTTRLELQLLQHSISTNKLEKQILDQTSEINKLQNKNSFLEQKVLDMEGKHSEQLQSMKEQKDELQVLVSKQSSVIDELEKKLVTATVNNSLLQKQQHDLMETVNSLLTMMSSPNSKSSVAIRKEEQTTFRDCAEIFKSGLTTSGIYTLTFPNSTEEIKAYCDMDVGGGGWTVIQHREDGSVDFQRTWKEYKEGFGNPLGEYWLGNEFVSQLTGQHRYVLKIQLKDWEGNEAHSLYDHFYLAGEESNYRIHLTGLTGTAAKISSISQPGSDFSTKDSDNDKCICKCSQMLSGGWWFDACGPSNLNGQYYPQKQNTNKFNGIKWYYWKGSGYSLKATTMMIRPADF
Protocol: (§1) For this purpose, an ELISA plate was coated with 4 μg/ml of hTie2/Fc (R&D Systems, Inc.) at 100 μl/well, and the wells were blocked as routine at 4° C. overnight.
(§2) Each concentration of the mAb was tested in triplicate. […] OD650 was determined 30 min after the HRP substrate was added.

[3] = molecular target: T2, mouse Angiopoietin-2; experiment: direct ELISA on plates coated with conditioned medium of HEK293F/mouse Ang-2 transfectants, detection with anti-human Fc-HRP
Protocol: The plates were incubated at 4° C. overnight, followed by washing four times using Phosphate Buffer Saline with a Skan Washer 300 station (SKATRON). The wells were blocked by 100 μl of ABX-block buffer (0.5% BSA, 0.1% Tween, 0.01% Thimerosal in PBS) for 1 hour. […] The mAbs and each of their dilutes were tested in duplicate. […] To set up the detecting chromagenic reaction, 100 μl of TMB substrate (TMB-microwell, BioFX, Cat. No. TMSK-1000-01) was added after washing the wells three times using PBS. The plates were incubated for 30 minutes before 650 stop solution (100 μl/well, BioFX, Cat. No. BSTP-0100-01) was added to terminate the reaction.

[4] = molecular target: T1, recombinant human Angiopoietin-2; experiment: competition ELISA: mAb titrated with recombinant human Ang-2 on plates coated with human Tie2/Fc; blocked partner: human Tie2/Fc
Protocol: as §1, §2

Binder | Efficacy (ratio of bound Ang-2 with mAbs (30 µg/ml) versus without mAbs) [1] | further results
mAb 5.28.1 (antibody, V domains shown, Variable regions only; hybridoma-derived fully human IgG kappa; also called x5.28) VH: EVQLVESGGIVVQPGGSLRLSCAASGFTFDDYTMHWVRQTPGKGLEWVSLISWDGGSTYYADSVKGRFTISRDNSKNSLYLQMNSLRTEDTALYYCAKDIDIAVAGTGFDHWGQGTLVTVSS VL: EIVMTQSPATLSVSPGERATLSCRASQSVTSNLAWYQQKPGQAPRLLIYGALIRATGIPARFSGSGSGTEFTLTISSLQSEDFAVYYCQQYNNWPFTFGPGTKVDIKR | 0.389 | –
mAb 3.19.3 (antibody, V domains shown, Variable regions only; hybridoma-derived fully human IgG kappa; also called x3.19) VH: QVQLVESGGGVVQPGRSLRLSCAASGFTFTNYGMHWGRQAPGKGLEWVAVISHDGNNKYYVDSVKGRFTISRDNSKNTLYLQMNSLRAEDTAVYYCAREGIDFWSGLNWFDPWGQGTLVTVSS VL: EIVLTQSPGTLSLSPGERATLSCRASQSITGSYLAWYQQKPGQAPRLLICGASSWATGIPDRFSGSGSGTDFTLTISRLEPEDFAVYYCQQYSSSPITFGQGTRLEIKR | 0.395 | IC50 (read off the curve) [2]: ~2 µg/mL; EC50 (read off the curve) [3]: ~1 µg/mL; IC50 (read off the curve) [4]: ~0.7 µg/mL
mAb 3.3.2 (antibody, V domains shown, Variable regions only; hybridoma-derived fully human IgG kappa; also called 3.3.1; x3.3) VH: EVQLVESGGGLVQPGGSLRLSCAVSGFTFSSYWMSWVRQAPGKGLEWVANIKQDGSEKYYVDSVKGRFTISRDNAKNSLYLQMNSLRAEDTAVYYCARDQGIAVAGPFDYWGQGTLVTVSS VL: EIVMTQSPATLSVSPGERATLSCRASQTVSSDLAWYQQKPGQAPRLLIYGASIRATGIPARFSGSGSGTEFTLTISSLQSEDFAVYSCQQYYNWWTFGQGTKVEIKR | 0.388 | –
mAb 5.88.3 (antibody, V domains shown, Variable regions only; hybridoma-derived fully human IgG kappa; also called x5.88*) VH: EVQMVESGGGLVQPGGSLRLSCAASGFTLRSYWMSWVRQAPGKGLEWVANIKEDGSEKYHVDSVKGRFTISRDNAENSLFLQMSSLRAEDTAVYYCARDMEASAGLFDYWGQGTLVTVSS VL: EIVMTQSPATLSVSPGERAILSCRASQSISSNLAWYQQKPGQAPRLLIYGASTRATGIPARFSGSGSGTEFTLTISSLQSEDFAVYYCQQYNYWWTFGQGTKVEIKR | 0.403 | –
mAb 3.31.2 (antibody, V domains shown, Variable regions only; hybridoma-derived fully human IgG kappa; also called x3.31*) VH: EVQLVESGGGLVQPGGSLRLSCAASGFTFSSYWMSWVRQAPGKGLEWVANIKQDGSDKYYVDSVKGRFTISRDNAKNSLYLRMNSLRAEDTAVFYCARDMGSGWFDYWGQGTLVTVSS VL: EVVMTQSPATLSVSPGERATLSCRASQSVGSNLAWYQQKPGQAPRLLIYGASTRATGIPARFSGSGSGTEFTLTISSLQSEDFAVYCCQQYNHWWTFGQGTKVEIKR | 0.375 | –
mAb 5.101.1 (antibody, V domains shown, Variable regions only; hybridoma-derived fully human IgG kappa; also called x5.101) VH: not shown VL: EIVMTQSPATLSVSPGERATLSCRASQSLISNLAWYQQKPGQAPRLLIFGASTRATGIPARFSGSGSGTEFTLTISSLQSEDFAVYYCHQYNNWWTFGQGTKVEIKR | 0.364 | –
mAb 5.103.1 (antibody, V domains shown, Variable regions only; hybridoma-derived fully human IgG kappa; also called x5.103*) VH: QVQLVQSGAEVKKPGASVKVSCKASGYTFTGYYLYWVPQAPGQGLEWMGWISPNSGGTNYAQKFQGRVTMTRDTSISTAYMELSRLRSDDTAVYYCARDQVIAVAGPFDYWAQGTLVTVSS VL: not shown | 0.232 | –
mAb 5.86.1 (antibody, V domains shown, Variable regions only; hybridoma-derived fully human IgG kappa; also called x5.86) VH: QVQLVQSGAEVKKPGASVKVSCKASGYTFTGYHMYWVRQAPGQGLEWLGWINPNSGGTNYAQKFQGRVTMTRDTSISTAYMELSRLRSDDTAVYYCVRDQGIAAAGPFDYWCQGTLVTVSS VL: DIRMTQSPSSLSASVGDRVTITCRASQRISTYLNWYQQKPGKAPKFLIYAASSLQSGVPSRFSGSGSGTDFTLTISSLQPEDFATYYCQQSYTTPFTFGPGTKVDIKR | 0.384 | –
